Experimental data published in the supplement of paper PMC12042874.
± gives the uncertainty stated by the source.

Assay: amyloid nucleation score (Sup35N fusion, yeast selection) (log enrichment); library NNK3; higher = more nucleation; inactive = no reads after selection
Summary of the method: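 On medium lacking adenine and uracil, psi-negative yeast expressing peptides of 20 random codons fused to Sup35N were grown 7 days at 30°C after a 24-hour induction with 100 μM copper sulfate. Illumina sequencing of input and output plasmid inserts gave the reads, and sequences under 100 input reads were excluded. The nucleation score is the DiMSum log enrichment of output over input reads, centred on the mode score of non-aggregating sequences.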

Row | Substance | amyloid nucleation score
1 | ACLIRPRFYPVNHNSVVASL | inactive
2 | NVTDVMRNISMTQLMFYLFA | 1.74 ± 0.062
3 | ILGEWLFCSIIFWGVWDYAG | inactive
4 | DCFNNWWVTHYQQINFPTVA | inactive
5 | SIRYFRLSGMMSMYFFCFVV | 0.952 ± 0.14
6 | SMLISRSEHLRLDTFGDSRY | 0.634 ± 0.13
7 | RVIIRKCDYFG | inactive
8 | SILKGGFCYMNFRSGKWGV | inactive
9 | LALFDRGTCRQSSVYSGEDS | inactive
10 | NCMEINVYFTFVEMQLAELD | 2.69 ± 0.055
11 | INGDNAPGYYYIMMIPRDIH | 0.858 ± 0.12
12 | SSEHFGCEASGVAER | inactive
13 | MSVRPL | inactive
14 | AILLNWNCVNFPCFEIYPYL | 1.7 ± 0.063
15 | LPYTGIYSRFRDRLWCVLKT | inactive
16 | IDARRFQGFNISSYMN | 0.372 ± 0.28
17 | MVLGELCVPGIFALCRFECN | inactive
18 | VRMQLMWCGP | inactive
19 | KVVVMDCWWNNIYCTDQWVI | -0.021 ± 0.22
20 | VTTIVYDSYCPLPRCWTWVG | inactive
21 | NRSPLCLKC | inactive
22 | HSMLDFFST | inactive
23 | VADRVSSK | inactive

Row | Substance | amyloid nucleation score
24 | MRFDNVTMRVLLCFS | inactive
25 | SCYFGILQWSQSPYFHCPFT | inactive
26 | VNVRHTGSLTFFF | 1.01 ± 0.12
27 | VFSFDMLHRLG | 1.53 ± 0.099
28 | GFINKDVF | inactive
29 | VLDLTKYSFLTI | inactive
30 | RVMRHLFHFVCNKSLDYWYR | inactive
31 | IYVHNYFISVVIMVYFTMLP | inactive
32 | CLSTPMVMLICFM | 0.904 ± 0.29
33 | CAAIRGKL | inactive
34 | TYMPAVIIYRVLQAMTAAHH | inactive
35 | FQCWYNKIRKFWVVHRWVSM | inactive
36 | DYVNRCI | inactive
37 | FVSEFMTSSTYLVPTVHITV | inactive
38 | YCSIMYVCNKILFNAAKARL | inactive
39 | TLDINMNLRSLYVGQHYADI | inactive
40 | DWEDCVV | inactive
41 | QFSNNSLKVRFMCVLYVVDR | -0.039 ± 0.37
42 | SLGLHIWFCTLLAIWTLLLL | inactive
43 | NVSYLGEVWYKFRLCVVCSR | 0.159 ± 0.27
44 | SVSASRSEVTRE | -0.146 ± 0.64
45 | FLAYGWWHYKWSGNDTLHSF | inactive
46 | WCRVIRTSGIYLGCASSGVV | inactive

Row | Substance | amyloid nucleation score
47 | NVCAVNFAWSITIWRYNY | inactive
48 | LDCTHSTLFWWRRFVSAYSL | inactive
49 | FYFPLYDL | inactive
50 | NLLKSTYSVIASCASLLDLV | inactive
51 | NTYRMMKGLSPVFMKMLCTP | inactive
52 | DQHFCKSEREGTRYWLRLTI | inactive
53 | GVKGFQRQKRIFFGFCEFKV | inactive
54 | ICFVSCKLFFVDSLCFCFAG | inactive
55 | FDSYRVYM | inactive
56 | DVSLVGSVMRIELLEMCVSR | inactive
57 | IDILNG | 0.152 ± 0.71
58 | TSKLRQCGFL | inactive
59 | YFSLWVLSYFLEAPLSLRNN | inactive
60 | APLYTANAMHSRCILSWVFL | 2.25 ± 0.082
61 | AGNIACVLSLCTYNARYRTR | 3.19 ± 0.068
62 | CVMAMPSNIEV | inactive
63 | NVDGVVLDCLSSLDSEWGYV | inactive
64 | YKNKTSNMLICNAF | inactive
65 | GNCLIRLTYR | inactive
66 | HYADSVESRSALLWLVSFLF | inactive
67 | GDFTSLDVVYYGNDCTLF | inactive
68 | IINIRVIVSSLFPFLSSEFS | inactive
69 | YIEYIWWRLSSWLRSMKGLR | inactive

Row | Substance | amyloid nucleation score
70 | LHCFIMLIKCDRVMIVTVQG | inactive
71 | ILSFEVWFGLWSTCGLYPHK | inactive
72 | SDSFSGPVKEPRYWGSQ | inactive
73 | IYILYVMDF | inactive
74 | EQLFD | inactive
75 | LAKDVFIC | inactive
76 | GVWRLSVYT | inactive
77 | MCWLLLIRWDK | inactive
78 | NSLVLTLLNLVGKSLHHFYN | inactive
79 | IMRSY | inactive
80 | FSVLVSCSWGMKFI | inactive
81 | SSACYTVLPGKAPTPAYPLL | inactive
82 | IFCST | inactive
83 | QTMAAYLYSWNNTV | inactive
84 | QDYSELRVSKKKVVRVG | inactive
85 | YRSTLEKVSVGMMENICVGI | 0.028 ± 0.2
86 | FFCNLSSILRWGN | 0.572 ± 0.18
87 | NWMDDWSYVVVSF | -1.13 ± 2.5
88 | TKVFVLHSYDCTIKTSGFNS | inactive
89 | HVDTSPSYIPPGIKLVRQRM | -0.528 ± 0.36
90 | PPFYMCFYLFVGLRNSMGWL | inactive
91 | SRSSWGPSAIPYYKKLFMLF | inactive
92 | GELRPLIVGDNLGLS | inactive

Row | Substance | amyloid nucleation score
93 | DKSSSFLVRGLLLHTSRATQ | inactive
94 | MYFILASSISILFGIKVFPM | inactive
95 | YPALINSVFITDAIGGPYCL | inactive
96 | NCNPFCIRLWFPNEYICW | inactive
97 | SWTFQHIWVRHSRSPCKAGR | inactive
98 | YFRAFMFETS | inactive
99 | SNGWFYFCFVSWWHSSFDGS | inactive
100 | HGDVCMNMGYNRT | inactive
101 | LFNPMKTVYWHNLAIWHYDV | inactive
102 | LLSREERTAVLLCTETQ | inactive
103 | FHYRENVNREHSPFWSREMV | inactive
104 | TVICELRNMRYS | 1.81 ± 0.087
105 | KACWLYLIFIFFGWVYSKTI | 0.745 ± 0.25
106 | FCYSDFIPLWIR | inactive
107 | DMCNYAFDGLCIYNYVNVVG | inactive
108 | AITHRIDS | inactive
109 | CSPRTWCFGYNLFDM | 2.5 ± 0.074
110 | FNAGYWGMSSKVSNESRWVY | inactive
111 | IEFGGNN | 1.68 ± 0.13
112 | IDTVNFKVLHVGI | inactive
113 | TDKAICISLFRVIRLYAYAK | inactive
114 | LRKSLTEQPPKGLASRLYWS | inactive
115 | CICKFTDLMHTGACLNILSR | 1.58 ± 0.11

Row | Substance | amyloid nucleation score
116 | FSLSQLLVCFWADSRSMKWT | inactive
117 | MIFVGILVFSDLRASKVPWV | inactive
118 | HLLTLTI | 0.501 ± 0.26
119 | KSCHQSRFISDYRPAAPEDS | inactive
120 | SRCRMIGMVISWNG | inactive
121 | LTLSYKQERTTARGKPVYLR | inactive
122 | NGCTW | inactive
123 | SFFESCF | inactive
124 | VVGRSCLFYSIVMY | 0.419 ± 0.67
125 | TNKRTYFWVF | 1.02 ± 0.097
126 | FLPPKMVLFPVSEWSLDLRY | inactive
127 | LLVMWWYRLTGPDGVSNWR | inactive
128 | YPTWKGIFNRWAEYCIRLPV | -0.266 ± 0.36
129 | SSLVL | inactive
130 | KHSVSLECRIRSAGDTVGWF | inactive
131 | QYVIIYEKQLGWRKFDFNSV | inactive
132 | TFPLAECRWIVWRLDDSLM | inactive
133 | TCSRIQLISNWFRVQLKSNV | inactive
134 | SPRQHARCRTLTLTRTLRPM | inactive
135 | CWLYFLS | inactive
136 | NEVVQSLTRSIFRRYSKSAM | 0.129 ± 0.98
137 | LDLDSNIGFISVLPF | inactive
138 | YKHFYSFFCISFS | 1.88 ± 0.08

Row | Substance | amyloid nucleation score
139 | IYDSRWTTNDSSCTTVFTEQ | inactive
140 | WTLRFLVKGSRCQFVAP | inactive
141 | KVRNPWMRIDTVCRFFILVV | inactive
142 | MKRGDDLHTLFITSVPKSGY | inactive
143 | YLWLWASWSWRGNQNKTSWA | inactive
144 | VEKCKLLFVTTHECLCHCSR | inactive
145 | LFMCIAMM | 0.284 ± 0.46
146 | TETSWDGVVLSLISCRFQSY | 3.02 ± 0.079
147 | GSSRSGKGHCMLRVSVFYCV | inactive
148 | WYIFFMEVMAGRY | inactive
149 | SFLYDSVNANLNSTCCCGYI | -0.913 ± 0.9
150 | FSACRDRTLGDHGQQPRDIG | inactive
151 | QQKGHTYKLLYNGGRLYFPT | 0.29 ± 0.51
152 | MCTTRGYMF | inactive
153 | VVDILFKMHEVDSVI | inactive
154 | GLTLFWITAVAQAWDWLDPL | inactive
155 | ISKSDLSLFN | inactive
156 | LNCPSYPNVGPWNLEVTAFQ | inactive
157 | FLSPSGVD | inactive
158 | ISPSYVQSDQFIGRTHVS | inactive
159 | LVAFATWYNGWWVPRENEFR | 0.033 ± 0.47
160 | LCCRQVTFERDVVVRYRRRR | inactive
161 | VAFTLIVRFCS | inactive
